Data as given in patent publication US20220017612A1 (TILOS THERAPEUTICS, published 2022).

Key:
[1] = target: T1, fusion protein of a human IgG1 Fc domain and human LAP-TGFβ1 (human, UniProt P01137 30-390); assay: BLI, antibody on tip, 1:1 model
T1 construct: printed both as Fc-huB1 and LAP-TGFβ-Fc; also called Fc-huB1; Fc-human LAP
Description: (§1) The chimeric antibodies were biotinylated using EZ-Link SulfoNHS-LC-Biotin (ThermoFisher). A streptavidin-functionalized tip was equilibrated in binding buffer (10 mM sodium phosphate, 150 mM sodium chloride, 1% (w/v) bovine serum albumin, 0.05% (w/v) sodium azide, pH 7.4). The tip was dipped in a 10 μg/mL solution of biotinylated, chimeric anti-LAP in binding buffer for 15 seconds to load the tip with antibody. The antibody-loaded tip was then washed in binding buffer and placed in a solution containing 0-24 nM of LAP-TGFβ1 (either a fusion protein containing a human IgG1 Fc domain fused to human LAP-TGFβ1 or a murine LAP-TGFβ1 with a C-terminal polyhistidine purification tag). The antigen was allowed to bind to antibody for 5 minutes (association phase), and then the tip was moved to binding buffer (dissociation phase). The association and dissociation phases were fit to a 1:1 binding model to determine the binding rate constants.

[2] = target: T2, murine LAP-TGFβ1 with a C-terminal polyhistidine purification tag (mouse, UniProt P04202 30-390); assay: BLI, antibody on tip, 1:1 model
T2 construct: also called Mouse LAP-TGFβ1
T2 sequence (P04202 30-390 limits assumed): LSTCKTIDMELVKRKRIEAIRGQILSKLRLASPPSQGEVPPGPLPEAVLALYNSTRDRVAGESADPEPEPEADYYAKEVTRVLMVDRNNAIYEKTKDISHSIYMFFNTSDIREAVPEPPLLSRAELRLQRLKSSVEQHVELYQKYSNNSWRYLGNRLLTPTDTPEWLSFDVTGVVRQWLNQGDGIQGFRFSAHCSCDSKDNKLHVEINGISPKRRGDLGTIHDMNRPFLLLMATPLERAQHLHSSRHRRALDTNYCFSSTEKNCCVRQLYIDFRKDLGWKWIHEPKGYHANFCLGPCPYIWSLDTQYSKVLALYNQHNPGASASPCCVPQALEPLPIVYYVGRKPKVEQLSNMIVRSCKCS
Description: as §1

[3] = target: T1, fusion protein of a human IgG1 Fc …; assay: BLI, 2:1 heterogeneous ligand model, component 1
Description: The 20E6_H0.2aL1_IgG1 antibody was biotinylated using EZ-Link SulfoNHS-LC-Biotin (ThermoFisher). A streptavidin-functionalized tip was equilibrated in binding buffer (10 mM sodium phosphate, 150 mM sodium chloride, 1% (w/v) bovine serum albumin, 0.05% (w/v) sodium azide, pH 7.4) and dipped in a 10 μg/mL solution of biotinylated anti-LAP in binding buffer for 30 seconds to load the tip with antibody. The antibody-loaded tip was then washed in binding buffer and placed in a solution containing 0-24 nM of a fusion protein having a human IgG1 Fc domain fused to either human LAP-TGFβ1, human LAP-TGFβ2 or human LAP-TGFβ3. The antigen was allowed to bind to antibody for 5 minutes (association phase), and then the tip was moved to binding buffer (dissociation phase). The association and dissociation phases were fit to a 2:1 heterogenous ligand binding model to determine the binding rate constants. As shown in FIG. 21A and Table 17, 20E6_H0.2aL1_IgG1 bound with sub-nanomolar affinity to human LAP-TGFβ1, but not to human LAP-TGFβ2 (FIG. 21B) or LAP-TGFβ3 (FIG. 21C).

T1 sequence (P01137 30-390 limits assumed): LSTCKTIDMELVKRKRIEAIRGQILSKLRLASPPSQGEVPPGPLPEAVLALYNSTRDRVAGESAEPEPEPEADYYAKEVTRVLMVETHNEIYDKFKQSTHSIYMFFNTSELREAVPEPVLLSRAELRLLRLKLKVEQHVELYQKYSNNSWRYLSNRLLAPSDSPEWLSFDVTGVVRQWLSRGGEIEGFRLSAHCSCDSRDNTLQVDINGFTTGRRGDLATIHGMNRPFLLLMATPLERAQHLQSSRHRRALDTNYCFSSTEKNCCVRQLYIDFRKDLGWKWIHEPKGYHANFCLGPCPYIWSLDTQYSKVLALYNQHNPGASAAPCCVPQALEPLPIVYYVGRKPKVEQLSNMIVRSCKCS

B1: 22F9_hIgG1 (antibody, V domains shown)
VH: QVQLQQPGAELVKPGASVKLSCKASGYTFTSYWMHWVKQRPGQGLEWIGMIHPNSGSTNYNEKFKSKATLTVDKSSSTAYMQLSSLTSEDSAVYYCAYYDYDGFFDVWGTGTTVTVSS
VL: DIVLTQSPASLDVSLGQRATISCRASKSVSTSGYSYMHWYQQKSGQPPKLLIYLASNLESGVPARFSGSGSGTHFTLNIHPVEEEDAATYYCQHSRELPYTFGGGTKLEIK
[1]
  Kd: 0.76 nM
  koff: 0.000768 s⁻¹
  kon: 1.01e+06 M⁻¹ s⁻¹
[2]
  Kd: 0.37 nM
  koff: 0.000444 s⁻¹
  kon: 1.21e+06 M⁻¹ s⁻¹

B2: 20E6_H0.2aL1_hIgG1 (antibody)
heavy: not shown
light: DIQMTQSPSSLSASVGDRVTITCRASQDITNYLNWYQQKPGKAVKLLIYYTSRLHSGVPSRFSGSGSGTDYTLTISSLQPEDFATYFCQQGDTLPWTFGQGTKLEIKRTVAAPSVFIFPPSDEQLKSGTASVVCLLNNFYPREAKVQWKVDNALQSGNSQESVTEQDSKDSTYSLSSTLTLSKADYEKHKVYACEVTHQGLSSPVTKSFNRGEC
notes: also called 20E6_H0.2aL1_IgG1; humanized 20E6
[3]
  Kd: 11.4 nM
  koff: 0.0369 s⁻¹
  kon: 3.24e+06 M⁻¹ s⁻¹
